Reference: the supplement of paper PMC9233669
Fewer inactive variants are shown than the library holds.

Key:
biotinyl-Phe-oxazolone = test: self-aminoacylation, catalytic enhancement (BFO) (fold over background); higher = more active; k-Seq, kA / k0A0; sequences stand for … in GGGAAUGGAUCCACAUCUACGAAUUC…UUCACUGCAGACUUGACGAAGCUG
Procedure, shortened: (§1)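 Working in 50 μL HEPES/NaCl/KCl/MgCl2/CaCl2 buffer with 5% acetonitrile at pH 6.9–7.0, mutagenized RNA pools (0.43 μM; 21-nt variable region) were reacted with 2–1250 μM of each biotinyl-aminoacyl-oxazolone for 90 minutes at room temperature. Streptavidin capture followed, with quantification by triplicate qPCR and Illumina sequencing. Catalytic enhancement is reported as median kA over the uncatalyzed rate, the low-activity peak of a bimodal Gaussian fit to the data.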

biotinyl-Ile-oxazolone = test: self-aminoacylation, catalytic enhancement (BIO) (fold over background); higher = more active; k-Seq, kA / k0A0; sequences stand for … in GGGAAUGGAUCCACAUCUACGAAUUC…UUCACUGCAGACUUGACGAAGCUG
Procedure, shortened: as §1

biotinyl-Met-oxazolone = test: self-aminoacylation, catalytic enhancement (BMO) (fold over background); higher = more active; k-Seq, kA / k0A0; sequences stand for … in GGGAAUGGAUCCACAUCUACGAAUUC…UUCACUGCAGACUUGACGAAGCUG
Procedure, shortened: as §1

biotinyl-Val-oxazolone = test: self-aminoacylation, catalytic enhancement (BVO) (fold over background); higher = more active; k-Seq, kA / k0A0; sequences stand for … in GGGAAUGGAUCCACAUCUACGAAUUC…UUCACUGCAGACUUGACGAAGCUG
Procedure, shortened: as §1

biotinyl-Leu-oxazolone = test: self-aminoacylation, catalytic enhancement (BLO) (fold over background); higher = more active; k-Seq, kA / k0A0; sequences stand for … in GGGAAUGGAUCCACAUCUACGAAUUC…UUCACUGCAGACUUGACGAAGCUG
Procedure, shortened: as §1

biotinyl-Trp-oxazolone = test: self-aminoacylation, catalytic enhancement (BWO) (fold over background); higher = more active; k-Seq, kA / k0A0; sequences stand for … in GGGAAUGGAUCCACAUCUACGAAUUC…UUCACUGCAGACUUGACGAAGCUG
Procedure, shortened: as §1

Sequence	self-aminoacylation (biotinyl-Phe-oxazolone)	self-aminoacylation (biotinyl-Ile-oxazolone)	self-aminoacylation (biotinyl-Met-oxazolone)	self-aminoacylation (biotinyl-Val-oxazolone)	self-aminoacylation (biotinyl-Leu-oxazolone)	self-aminoacylation (biotinyl-Trp-oxazolone)
UCUACCCUGGUCAUCGAGUGA [Fam2.1 aminoacylation ribozyme variant]	14.6	5.18	10.4	5.79	9.36	12.6
UGACUUCAAACAAUCGGUCUG [Fam1A.1 aminoacylation ribozyme variant]	96.8	1.73	2.05	1.73	2.53	39.2
UGGUUUGCUAAUAGUCGCAAG [Fam3.1 aminoacylation ribozyme variant]	8.93	1.81	1.88	1.51	1.58	4.47
UGUACCCUGGUCAUCGAGUGA [Fam2.1 aminoacylation ribozyme variant]	10.3	4.06	5.72	3.66	7.2	8.02
UUAACCCUGGUCAUCGAGUGA [Fam2.1 aminoacylation ribozyme variant]	20.2	5.63	11.7	5.9	12	11.5
UUACACUUCAAGCAAUCGGUC [Fam1B.1 aminoacylation ribozyme variant]	30.4	1.25	1.26	1.14	1.5	15.7
UUACUUCAAAAAAUCGGUCUG [Fam1A.1 aminoacylation ribozyme variant]	7.17	1.44	1.22	0.984	1.29	5.65
UUACUUCAAACAAUCGGUCUC [Fam1A.1 aminoacylation ribozyme variant]	31.6	1.2	1.17	1.04	1.4	17.2
UUACUUCAAACAAUCGGUCUG [Fam1A.1 aminoacylation ribozyme variant]	37.4	1.3	1.29	1.22	1.69	20.7
UUACUUCAAACAAUCUGUCUG [Fam1A.1 aminoacylation ribozyme variant]	3.15	1.45	1.42	1.35	1.38	2.09
UUACUUCAAACAAUGGGUCUG [Fam1A.1 aminoacylation ribozyme variant]	0.83	1.05	1.03	1.05	1.06	1.23
UUACUUCAAACCAUCGGUCUG [Fam1A.1 aminoacylation ribozyme variant]	1.23	1.09	1.06	1.03	0.847	1.02
UUACUUCAAGCAAUCGGUCUG [Fam1A.1 aminoacylation ribozyme variant]	5.97	0.993	1.12	0.95	1.26	3.89
UUACUUCACACAAUCGGUCUG [Fam1A.1 aminoacylation ribozyme variant]	1.66	1.27	1.06	1.28	1.17	1.03
UUACUUCAGACAAUCGGUCUG [Fam1A.1 aminoacylation ribozyme variant]	1.73	1.14	1.11	1.12	1.3	1.12
UUACUUUAAACAAUCGGUCUG [Fam1A.1 aminoacylation ribozyme variant]	1.4	1.11	1.38	1.11	0.878	1.25
UUGCUUCAAACAAUCGGUCUG [Fam1A.1 aminoacylation ribozyme variant]	147	2.12	2.25	1.91	3.55	53.4
UUUACCCUGGUCAACGAGUGA [Fam2.1 aminoacylation ribozyme variant]	26.1	3	5.61	3.5	5.66	8.31
UUUACCCUGGUCACCGAGUGA [Fam2.1 aminoacylation ribozyme variant]	44.3	3.3	7.62	4.12	7.47	8
UUUACCCUGGUCAUCCAGUGA [Fam2.1 aminoacylation ribozyme variant]	15.7	3.12	4.91	2.98	4.72	6.23
UUUACCCUGGUCAUCGAGAGA [Fam2.1 aminoacylation ribozyme variant]	2.19	1.28	1.61	1.3	1.32	1.86
